The target of data set [1] is T1, human dimethylglycine dehydrogenase (hDMGDH) (Homo sapiens, UniProt Q9UI17).
T1 construct: gene DMGDH; covalent FAD at His91
T1 sequence (Q9UI17 29-866): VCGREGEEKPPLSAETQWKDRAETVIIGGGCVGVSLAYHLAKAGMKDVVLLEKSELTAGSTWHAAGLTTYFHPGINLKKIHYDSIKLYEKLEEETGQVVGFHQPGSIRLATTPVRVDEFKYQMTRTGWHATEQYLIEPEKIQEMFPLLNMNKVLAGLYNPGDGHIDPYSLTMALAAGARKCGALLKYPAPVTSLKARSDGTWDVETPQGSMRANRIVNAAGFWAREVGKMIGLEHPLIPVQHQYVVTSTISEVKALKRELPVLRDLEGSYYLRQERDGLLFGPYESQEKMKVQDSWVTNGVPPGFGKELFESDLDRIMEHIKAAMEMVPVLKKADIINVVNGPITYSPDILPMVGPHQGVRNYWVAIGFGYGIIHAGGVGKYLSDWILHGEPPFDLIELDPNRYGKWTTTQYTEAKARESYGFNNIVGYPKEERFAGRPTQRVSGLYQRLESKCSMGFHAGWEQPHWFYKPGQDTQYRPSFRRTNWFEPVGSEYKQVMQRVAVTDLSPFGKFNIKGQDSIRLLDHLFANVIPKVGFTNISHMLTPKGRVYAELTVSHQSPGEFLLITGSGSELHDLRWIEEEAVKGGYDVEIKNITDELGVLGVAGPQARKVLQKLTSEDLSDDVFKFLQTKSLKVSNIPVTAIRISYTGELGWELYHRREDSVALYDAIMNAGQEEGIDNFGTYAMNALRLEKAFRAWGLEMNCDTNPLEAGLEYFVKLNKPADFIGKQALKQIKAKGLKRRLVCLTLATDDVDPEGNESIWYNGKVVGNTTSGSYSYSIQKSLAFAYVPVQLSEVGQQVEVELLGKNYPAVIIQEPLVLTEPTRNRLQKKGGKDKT
The data set can be described thus: ferrocenium activity assay against THF concentration. The settings on record: 1 mM DMG, 0.2 mM ferrocene, 0-75 μM THF, 50 mM HEPES/NaOH, 150 mM NaCl, 0.1 mM EDTA, pH 7.8, 25 °C; physiological methyl acceptor. It counts as biochemical.

For data set [2], the target named is T1, human dimethylglycine dehydrogenase (hDMGDH). Kind of data set: X-ray crystal structure, […] Å. It is filed as binding. Conditions: covalent; 8alpha-methyl group linked to N3 of His91.
The target is the same in data set [3]. Kind of data set: stopped flow, FAD reduction at […] nm, hyperbolic fit of kobs. It is filed as biochemical. Conditions: anaerobic, 50 mM HEPES/NaOH, 150 mM NaCl, pH 7.8, 25 °C; pre-steady-state; read-out: K D,DMG.
Substrate in the data set “purified protein”: CN(C)CC(=O)O
The data set can be described thus: purified protein. It counts as biochemical, Homo sapiens. Conditions: 0.2 mM ferrocenium hexafluorophosphate as electron acceptor, 50 mM HEPES/NaOH, 150 mM NaCl, 0.1 mM EDTA, pH 7.8, 25 °C.

Where [4] appears, read: natural disease variant, partly apoprotein.

Regarding `Nc1nc2c(c(=O)[nH]1)N[C@@H](CNc1ccc(C(=O)N[C@@H](CCC(=O)O)C(=O)O)cc1)CN2` [THF, tetrahydrofolate], the activity entry in data set [1] is “the activity of WT decreases as a function of the THF concentration”.
As for `Cc1cc2nc3c(=O)[nH]c(=O)nc-3n(C[C@H](O)[C@H](O)[C@H](O)COP(=O)(O)OP(=O)(O)OC[C@H]3O[C@@H](n4cnc5c(N)ncnc54)[C@H](O)[C@@H]3O)c2cc1C` [FAD, flavin adenine dinucleotide], the “X-ray crystal structure, 3.1 Å” value in data set [2] is given as “The FAD cofactor is covalently attached to the protein through a linkage between N3”.
For the molecule `CN(C)CC(=O)O` [DMG, dimethylglycine], in data set [3], the Kd is 4.9 ± 0.3 mM.

B1: human dimethylglycine dehydrogenase (hDMGDH) (Homo sapiens) (protein)
chain: VCGREGEEKPPLSAETQWKDRAETVIIGGGCVGVSLAYHLAKAGMKDVVLLEKSELTAGSTWHAAGLTTYFHPGINLKKIHYDSIKLYEKLEEETGQVVGFHQPGSIRLATTPVRVDEFKYQMTRTGWHATEQYLIEPEKIQEMFPLLNMNKVLAGLYNPGDGHIDPYSLTMALAAGARKCGALLKYPAPVTSLKARSDGTWDVETPQGSMRANRIVNAAGFWAREVGKMIGLEHPLIPVQHQYVVTSTISEVKALKRELPVLRDLEGSYYLRQERDGLLFGPYESQEKMKVQDSWVTNGVPPGFGKELFESDLDRIMEHIKAAMEMVPVLKKADIINVVNGPITYSPDILPMVGPHQGVRNYWVAIGFGYGIIHAGGVGKYLSDWILHGEPPFDLIELDPNRYGKWTTTQYTEAKARESYGFNNIVGYPKEERFAGRPTQRVSGLYQRLESKCSMGFHAGWEQPHWFYKPGQDTQYRPSFRRTNWFEPVGSEYKQVMQRVAVTDLSPFGKFNIKGQDSIRLLDHLFANVIPKVGFTNISHMLTPKGRVYAELTVSHQSPGEFLLITGSGSELHDLRWIEEEAVKGGYDVEIKNITDELGVLGVAGPQARKVLQKLTSEDLSDDVFKFLQTKSLKVSNIPVTAIRISYTGELGWELYHRREDSVALYDAIMNAGQEEGIDNFGTYAMNALRLEKAFRAWGLEMNCDTNPLEAGLEYFVKLNKPADFIGKQALKQIKAKGLKRRLVCLTLATDDVDPEGNESIWYNGKVVGNTTSGSYSYSIQKSLAFAYVPVQLSEVGQQVEVELLGKNYPAVIIQEPLVLTEPTRNRLQKKGGKDKT
notes: covalent FAD at His91
By Km is commonly meant the concentration of substrate that gives half-maximal velocity. Usually Vmax stands for the top rate of the reaction or transport when substrate is in excess. In general, kcat refers to the maximal rate divided by the concentration of active sites. The term kcat/Km denotes the second-order rate constant that governs catalysis at low substrate concentration. With B1, in the data set “purified protein”, the Michaelis-Menten constant (Km) is 1.4 ± 0.1 mM, the Vmax came out at 22.1 µM/min, the catalytic constant (kcat) is 3.55 ± 0.0667 s⁻¹ and the kcat/Km was determined as 2280 ± 267 M⁻¹ s⁻¹.

B2: human dimethylglycine dehydrogenase (hDMGDH) (Homo sapiens; H109R) (protein)
chain: VCGREGEEKPPLSAETQWKDRAETVIIGGGCVGVSLAYHLAKAGMKDVVLLEKSELTAGSTWHAAGLTTYFHPGINLKKIRYDSIKLYEKLEEETGQVVGFHQPGSIRLATTPVRVDEFKYQMTRTGWHATEQYLIEPEKIQEMFPLLNMNKVLAGLYNPGDGHIDPYSLTMALAAGARKCGALLKYPAPVTSLKARSDGTWDVETPQGSMRANRIVNAAGFWAREVGKMIGLEHPLIPVQHQYVVTSTISEVKALKRELPVLRDLEGSYYLRQERDGLLFGPYESQEKMKVQDSWVTNGVPPGFGKELFESDLDRIMEHIKAAMEMVPVLKKADIINVVNGPITYSPDILPMVGPHQGVRNYWVAIGFGYGIIHAGGVGKYLSDWILHGEPPFDLIELDPNRYGKWTTTQYTEAKARESYGFNNIVGYPKEERFAGRPTQRVSGLYQRLESKCSMGFHAGWEQPHWFYKPGQDTQYRPSFRRTNWFEPVGSEYKQVMQRVAVTDLSPFGKFNIKGQDSIRLLDHLFANVIPKVGFTNISHMLTPKGRVYAELTVSHQSPGEFLLITGSGSELHDLRWIEEEAVKGGYDVEIKNITDELGVLGVAGPQARKVLQKLTSEDLSDDVFKFLQTKSLKVSNIPVTAIRISYTGELGWELYHRREDSVALYDAIMNAGQEEGIDNFGTYAMNALRLEKAFRAWGLEMNCDTNPLEAGLEYFVKLNKPADFIGKQALKQIKAKGLKRRLVCLTLATDDVDPEGNESIWYNGKVVGNTTSGSYSYSIQKSLAFAYVPVQLSEVGQQVEVELLGKNYPAVIIQEPLVLTEPTRNRLQKKGGKDKT
notes: covalent FAD at His91
As to B2, in “purified protein” (setting [4]), the Km was found to be 32.2 ± 5.6 mM, the maximum rate (Vmax) was 44.1 µM/min, the kcat is 9.07 ± 0.667 s⁻¹ and the kcat/Km is 183 ± 16.7 M⁻¹ s⁻¹.

Source of the values: publication PMC5082570, “Structure and biochemical properties of recombinant human dimethylglycine dehydrogenase and comparison to the disease‐related H109R variant” (The Febs Journal, 2016).
